Laboratory results taken from PMC7588069.

What follows are molecules tested against GST fusion with the receptor interaction domains (RID) of NCoRδ (region equivalent to amino acids 1817–2453 of NCoRω) (assay: pull-down; GST fusion protein (~50 ng) immobilised on ~10 μl glutathione-agarose; 35S-radiolabeled in vitro translated nuclear receptor (2–5 μl TnT product) in 120 μl HEMG buffer (4 mM HEPES pH 7.8, 0.2 mM EDTA, 5 mM MgCl2, 10% glycerol, 100 mM KCl, 0.1% Nonidet P-40, 1.5 mM DTT) with 10 mg/ml BSA; 3 hr at 4°C; eluted with 10 mM glutathione, SDS-PAGE, PhosphorImager).

Molecule	relative binding to NCoRδ versus NCoRω (ratio (NCoRδ versus NCoRω))
Liver X Receptor α (receptor, 35S-radiolabeled) MSLWLGAPVPDIPPDSAVELWKPGAQDASSQAQGGSSCILREEARMPHSAGGTAGVGLEAAEPTALLTRAEPPSEPTEIRPQKRKKGPAPKMLGNELCSVCGDKASGFHYNVLSCEGCKGFFRRSVIKGAHYICHSGGHCPMDTYMRRKCQECRLRKCRQAGMREECVLSEEQIRLKKLKRQEEEQAHATSLPPRASSPPQILPQLSPEQLGMIEKLVAAQQQCNRRSFSDRLRVTPWPMAPDPHSREARQQRFAHFTELAIVSVQEIVDFAKQLPGFLQLSREDQIALLKTSAIEVMLLETSRRYNPGSESITFLKDFSYNREDFAKAGLQVEFINPIFEFSRAMNELQLNDAEFALLIAISIFSADRPNVQDQLQVERLQHTYVEALHAYVSIHHPHDRLMFPRMLMKLVSLRTLSSVHSEQVFALRLQDKKLPPLLSEIWDVHE	0.51
Farnesoid X Receptor (receptor, 35S-radiolabeled) MVMQFQGLENPIQISPHCSCTPSGFFMEMMSMKPAKGVLTEQVAGPLGQNLEVEPYSQYSNVQFPQVQPQISSSSYYSNLGFYPQQPEEWYSPGIYELRRMPAETLYQGETEVAEMPVTKKPRMGASAGRIKGDELCVVCGDRASGYHYNALTCEGCKGFFRRSITKNAVYKCKNGGNCVMDMYMRRKCQECRLRKCKEMGMLAECMYTGLLTEIQCKSKRLRKNVKQHADQTVNEDSEGRDLRQVTSTTKSCREKTELTPDQQTLLHFIMDSYNKQRMPQEITNKILKEEFSAEENFLILTEMATNHVQVLVEFTKKLPGFQTLDHEDQIALLKGSAVEAMFLRSAEIFNKKLPSGHSDLLEERIRNSGISDEYITPMFSFYKSIGELKMTQEEYALLTAIVILSPDRQYIKDREAVEKLQEPLLDVLQKLCKIHQPENPQHFACLLGRLTELRTFNHHHAEMLMSWRVNDHKFTPLLCEIWDVQ	0.35

Further lines, results first:

relative binding to NCoRδ versus NCoRω (ratio (NCoRδ versus NCoRω))	Molecule
0.88	Peroxisome Proliferator Activated Receptor γ (from UniProt P37231 1-505)
0.42	Thyroid Hormone Receptor α (from UniProt P10827-2 1-410)
0.79	Peroxisome Proliferator Activated Receptor α (receptor, 35S-radiolabeled) MVDTESPLCPLSPLEAGDLESPLSEEFLQEMGNIQEISQSIGEDSSGSFGFTEYQYLGSCPGSDGSVITDTLSPASSPSSVTYPVVPGSVDESPSGALNIECRICGDKASGYHYGVHACEGCKGFFRRTIRLKLVYDKCDRSCKIQKKNRNKCQYCRFHKCLSVGMSHNAIRFGRMPRSEKAKLKAEILTCEHDIEDSETADLKSLAKRIYEAYLKNFNMNKVKARVILSGKASNNPPFVIHDMETLCMAEKTLVAKLVANGIQNKEAEVRIFHCCQCTSVETVTELTEFAKAIPGFANLDLNDQVTLLKYGVYEAIFAMLSSVMNKDGMLVAYGNGFITREFLKSLRKPFCDIMEPKFDFAMKFNALELDDSDISLFVAAIICCGDRPGLLNVGHIEKMQEGIVHVLRLHLQSNHPDDIFLFPKLLQKMADLRQLVTEHAQLVQIIKKTESDAALHPLLQEIYRDMY
